Test results from US20240409663A1 (CONCEPT TO MEDICINE BIOTECH, published 2024).
Where a chain is given by its changes, count along the chain named. Where two headings read alike, the source gives them in different places.

B1: 52H5D3B8-6#-VH1+VL1 (antibody, V domains shown)
VH: QVQLVQSGAEVKKPGASVKVSCKASGYTFTDYEMHWVRQAPGQGLEWMGAIHPGSGGTAYNQKFKGRVTMTRDTSTSTVYMELSSLRSEDTAVYYCARYYSYAYWGQGTLVTVSS
VL: DIVMTQTPLSLSVTPGQPASISCRSSQSLVHSNGNTYLQWYLQKPGQSPQLLIYKVSNRFSGVPDRFSGSGSGTDFTLKISRVEAEDVGVYYCFQSIHVPYTFGGGTKLEIK
notes: humanized
B2: 52H5D3B8-6#-VH2+VL3 (antibody, V domains shown)
VH: B1 VH with M48I, R72A, A97T
VL: B1 VL with Q50K
notes: humanized
B3: 52H5D3B8-6# chimeric mAb (antibody, V domains shown)
VH: QVQLQQSGAELVRPGASVKLSCKALGYTFTDYEMHWVKQTPVHGLEWIGAIHPGSGGTAYNQKFKGKATLTADKFSSTGYMELSSLTSEDSAVYYCTRYYSYAYWGQGTLVTVSA
VL: B1 VL with I2V, S12P, T14S, P15L, Q17D, P18Q, Q50K, T77I, V88L, Y92F
notes: CDR3 mutant of the 52H5D3B8 chimeric mAb (human IgG1); also called 52H5D3B8-6#-VH+VL

Assays:
[1] = molecular target: T1, human GPC3 on cells (human, UniProt P51654 25-554); experiment: FACS, GPC3-CHOK1 cells
[2] = molecular target: T1, human GPC3 on cells; experiment: FACS, HEPG2 cells
[3] = molecular target: T1, human GPC3 on cells; experiment: FACS, Hep3B cells
[4] = molecular target: T1, human GPC3 on cells; experiment: cell-based or functional assay
[5] = molecular target: T1, human GPC3 on cells; experiment: FACS, GPC3-CHOK1 cells; remark: listed apart in the source
[6] = molecular target: T1, human GPC3 on cells; experiment: FACS, HEPG2 cells; remark: listed apart in the source
[7] = molecular target: T1, human GPC3 on cells; experiment: FACS, GPC3-CHOK1 cells; remark: listed apart in the source
[8] = molecular target: T1, human GPC3 on cells; experiment: FACS, Huh-7 cells
[9] = molecular target: T1, human GPC3 on cells; experiment: FACS, Huh-7 cells; remark: listed apart in the source
[10] = molecular target: T1, human GPC3 on cells; experiment: FACS on GPC3-CHOK1 cells, Alexa Fluor 647 anti-human IgG, AF647-MFI
[11] = molecular target: T1, human GPC3 on cells; experiment: FACS, GPC3-CHOK1 cells; remark: listed apart in the source
[12] = molecular target: T1, human GPC3 on cells; experiment: FACS, Hep3B cells; remark: listed apart in the source
[13] = molecular target: T1, human GPC3 on cells; experiment: FACS, HEPG2 cells; remark: listed apart in the source
[14] = molecular target: T1, human GPC3 on cells; experiment: FACS, Huh-7 cells; remark: listed apart in the source
[15] = molecular target: T1, human GPC3 on cells; experiment: FACS, GPC3-CHOK1 cells; remark: listed apart in the source
[16] = molecular target: T1, human GPC3 on cells; experiment: FACS, GPC3-CHOK1 cells; remark: listed apart in the source
[17] = molecular target: T1, human GPC3 on cells; experiment: FACS, HEPG2 cells
Method: (§1) To evaluate the antigen binding property, the humanized antibodies were analyzed for their binding to human GPC3 over-expressed CHOK1 cells, HEPG2 cells, Hep3B cells and Huh-7 cells by FACS. Briefly, GPC3-CHOK1 cells, HEPG2 cells, Hep3B cells and Huh-7 cells were firstly incubated with Fc blocking reagent at 4° C. for 15 mins. Cells were washed by FACS buffer and divided to each well with 4-fold serially diluted humanized antibodies starting at 10 μg/mL at 4° C. for 60 mins. Cells were washed by FACS buffer and fixed with 2% PFA at RT for 15 mins. […] The 16 humanized antibodies were separated into two plates.

[18] = molecular target: T1, human GPC3 on cells; experiment: FACS, HEPG2 cells; remark: listed apart in the source
Excerpt: (§2) FACS was used to evaluate the binding activity of 52H5D3B8-6 #-VH1+VL1 and 52H5D3B8-6 #-VH2+VL3 with comparison to GC33 (Chugai Pharmaceutical) and Y035 (Carsgen Therapeutics, U.S. Patent Application US20190046659) on human GPC3 over-expressed CHOK1 cells and HEPG2 cells.

[19] = molecular target: T2, human GPC3-his tag protein (human, UniProt P51654 25-559, limits assumed); experiment: SPR Biacore 8K, mAb captured, affinity ranking
T2 construct: recombinant soluble antigen used as analyte in all Biacore runs; also called recombinant GPC3 protein; rhGPC3-His; not shown: His tag
Method: To evaluate antigen binding activity, the chimeric antibody's affinity was measured by Biacore 8K. A serial dilution of human GPC3-his tag protein was injected over captured chimeric antibody 52H5D3B8-6 #-VH+VL for 3 mins at a flow rate of 30 μl/min. The antigen was allowed to dissociate for 720 s. Among the multi detection doses, two concentrations with most close affinity to the chimeric antibody's affinity were chosen for the 16 humanized antibodies' affinity detection.

[20] = molecular target: T1, human GPC3 on cells; experiment: FACS, GPC3-CHOK1 cells
Excerpt: as §2

[21] = molecular target: T1, human GPC3 on cells; experiment: cell-based or functional assay; remark: listed apart in the source
[22] = molecular target: T2, human GPC3-his tag protein; experiment: SPR Biacore, mAb captured on CM5, GPC3-his dilution series (full kinetics)
Method: The binding of the humanized antibodies to recombinant GPC3 protein (human GPC3-his tag) was tested by Biacore using a capture method. 52H5D3B8-6 #-V+VL, 52H5D3B8-6 #-VH1+VL1, 52H5D3B8-6 #-VH1+VL3, 52H5D3B8-6 #-V1+VL4, 52H5D3B8-6 #-VH2+VL4, 52H5D3B8-6 #-VH3+VL1, 52H5D3B8-6 #-VH3+VL3 mAbs were captured using CM5 sensor chip. A serial dilution of human GPC3-his tag protein was injected over captured antibody for 2 mins at a flow rate of […]. The antigen was allowed to dissociate for 360 s. All the experiments were carried out on a Biacore T200.

[23] = molecular target: T1, human GPC3 on cells; experiment: FACS, Huh-7 cells
Method: as §1

[24] = molecular target: T1, human GPC3 on cells; experiment: cell-based or functional assay; remark: listed apart in the source
[25] = molecular target: T1, human GPC3 on cells; experiment: FACS, Hep3B cells
Method: as §1

[26] = molecular target: T1, human GPC3 on cells; experiment: FACS, GPC3-CHOK1 cells; remark: listed apart in the source
Method: as §1

[27] = molecular target: T1, human GPC3 on cells; experiment: FACS, GPC3-CHOK1 cells; remark: listed apart in the source
Method: To evaluate the antigen binding property, the affinity maturated antibodies were analyzed for their binding to human GPC3 over-expressed CHOK1 cells by FACS as previously described.

[28] = molecular target: T1, human GPC3 on cells; experiment: FACS, GPC3-CHOK1 cells; remark: listed apart in the source
Method: (§3) Cell-based binding: FACS was used to evaluate the binding activity of 52H5D3B8, 52H5D3B8-6 # chimeric mAbs and GC33 antibody on human GPC3 over-expressed CHOK1 cells, Hep3B cells and Huh-7 cells.
(§4) Briefly, GPC3-CHOK1 cells, Hep3B cells or Huh-7 cells were firstly incubated with Fc blocking reagent at 4° C. for 15 mins. Cells were washed by FACS buffer and divided to each well with 3-fold serially diluted 52H5D3B8, 52H5D3B8-6 # chimeric mAbs or GC33 antibody starting at 30 μg/mL at 4° C. for 60 mins. Cells were washed by FACS buffer and fixed with 2% PFA at RT for 15 mins. […] Samples were washed twice with FACS buffer.

[29] = molecular target: T1, human GPC3 on cells; experiment: FACS, Huh-7 cells; remark: listed apart in the source
Method: as §3, §4

[30] = molecular target: T1, human GPC3 on cells; experiment: FACS, HEPG2 cells; remark: listed apart in the source
Method: as §1

[31] = molecular target: T1, human GPC3 on cells; experiment: FACS, Hep3B cells; remark: listed apart in the source
Method: as §1

[32] = molecular target: T1, human GPC3 on cells; experiment: FACS, Huh-7 cells; remark: listed apart in the source
Method: as §1

[33] = molecular target: T1, human GPC3 on cells; experiment: FACS, GPC3-CHOK1 cells; remark: listed apart in the source
Method: as §1

[34] = molecular target: T2, human GPC3-his tag protein; experiment: SPR Biacore 8K, mAb captured, one or two doses GPC3-his
Method: The binding of the optimized antibodies of 52H5D3B8 mAb to human GPC3-his was tested with Biacore using a capture method. A single dose or two doses of human GPC3-his tag protein was injected over captured antibody. All the experiments were carried out on a Biacore 8K. Data analysis was carried out using Biacore 8K evaluation software.

[35] = molecular target: T1, human GPC3 on cells; experiment: FACS, GPC3-CHOK1 cells; remark: listed apart in the source
Method: Briefly, GPC3-CHOK1 cells were firstly incubated with Fc blocking reagent at 4° C. for 15 mins. Cells were washed by FACS buffer and divided to each well with 3-fold serially diluted 52H5D3B8, 52H5D3B8-1 #, 52H5D3B8-2 #, 52H5D3B8-3 #, 52H5D3B8-4 #, 52H5D3B8-5 #, 52H5D3B8-6 #, 52H5D3B8-7 #, 52H5D3B8-8 #, 52H5D3B8-9 #, 52H5D3B8-10 #, 52H5D3B8-11 #, 52H5D3B8-12 #, 52H5D3B8-13 #, 52H5D3B8-14 # and 52H5D3B8-15# chimeric mAbs starting at 30 μg/mL at 4° C. for 60 mins. Cells were washed by FACS buffer and fixed with 2% PFA at RT for 15 mins. […] Samples were washed twice with FACS buffer.

[36] = molecular target: T1, human GPC3 on cells; experiment: FACS, Hep3B cells; remark: listed apart in the source
Method: as §3, §4

| Molecule | EC50 [17] | EC50 [18] | Kd [19] | koff [19] | kon [19] | EC50 [20] | EC50 of ADCC signaling (Jurkat-hCD16a-NFAT luciferase reporter), HEPG2 cells [21] | EC50 of ADCC signaling (Jurkat-hCD16a-NFAT luciferase reporter), Huh-7 cells [21] | Kd [22] | koff [22] | kon [22] | EC50 [23] | EC50 of ADCC cytotoxicity (primary NK cells, LDH), HEPG2 cells [24] | EC50 of ADCC cytotoxicity (primary NK cells, LDH), Huh-7 cells [24] | EC50 [25] | EC50 [26] | also measured |
| --- | --- | --- | --- | --- | --- | --- | --- | --- | --- | --- | --- | --- | --- | --- | --- | --- | --- |
| GC33 (Chugai Pharmaceutical) (antibody) | – | – | – | – | – | – | – | – | – | – | – | – | – | – | – | – | EC50 [1]: 0.131 µg/mL; EC50 [2]: 0.181 µg/mL; EC50 [3]: 0.341 µg/mL; EC50 of ADCC cytotoxicity (primary NK cells, LDH), HEPG2 cells [4]: 0.276 nM; EC50 of ADCC cytotoxicity (primary NK cells, LDH), Huh-7 cells [4]: 0.172 nM; EC50 of ADCC signaling (Jurkat-hCD16a-NFAT luciferase reporter), HEPG2 cells [4]: 0.415 nM; EC50 of ADCC signaling (Jurkat-hCD16a-NFAT luciferase reporter), Huh-7 cells [4]: 0.29 nM; EC50 [5]: 0.122 µg/mL; EC50 [6]: 0.745 nM; EC50 [7]: 0.956 nM; EC50 [8]: 0.953 nM; EC50 [9]: 0.147 µg/mL; EC50 (read off the curve) [10]: 0.1 µg/mL; EC50 [11]: 0.166 µg/mL; EC50 [12]: 0.375 µg/mL; EC50 [13]: 1.28 nM; EC50 [14]: 0.182 µg/mL; EC50 [15]: 0.784 nM; EC50 [16]: 0.993 nM |
| B1 | 0.0411 µg/mL | 0.342 nM | 1.97 nM | 0.00112 s⁻¹ | 567000 M⁻¹ s⁻¹ | 0.332 nM | 0.176 nM | 0.322 nM | 2.24 nM | 0.00111 s⁻¹ | 497000 M⁻¹ s⁻¹ | 0.0362 µg/mL | 0.0845 nM | 0.108 nM | 0.0626 µg/mL | 0.038 µg/mL | – |
| B2 | 0.0438 µg/mL | 0.354 nM | 0.962 nM | 0.000642 s⁻¹ | 668000 M⁻¹ s⁻¹ | 0.344 nM | 0.174 nM | 0.265 nM | – | – | – | 0.0384 µg/mL | 0.104 nM | 0.106 nM | 0.0705 µg/mL | 0.0411 µg/mL | EC50 [27]: 0.412 nM |
| B3 | 0.0452 µg/mL | – | 0.425 nM | 0.000307 s⁻¹ | 721000 M⁻¹ s⁻¹ | – | – | – | 0.446 nM | 0.000265 s⁻¹ | 595000 M⁻¹ s⁻¹ | 0.0347 µg/mL | – | – | 0.0643 µg/mL | 0.035 µg/mL | EC50 [28]: 0.0474 µg/mL; EC50 [29]: 0.0501 µg/mL; EC50 [30]: 0.0469 µg/mL; EC50 [31]: 0.0664 µg/mL; EC50 [32]: 0.0378 µg/mL; EC50 [33]: 0.0389 µg/mL; Kd [34]: 0.368 nM; koff [34]: 0.000289 s⁻¹; kon [34]: 785000 M⁻¹ s⁻¹; EC50 [35]: 0.0601 µg/mL; EC50 [36]: 0.0982 µg/mL |
